The series has as its target ABCA1 (Homo sapiens, UniProt O95477). Put plainly: ABCA1-mediated cholesterol efflux from BHK-ABCA1 cells, acceptor in media. Format: cell-based. Further details: expressed in transfected cells; host or cells: BHK cells, stably transfected, induced with 10 nM mifepristone (gift of J. F. Oram). The following applies: BHK-ABCA1 induced with mifepristone, 4 h, 37°C, mean ± SD. The text has this: BHK cells stably transfected with an ABCA1 or ABCG1 expression vector that is mifepristone inducible and cells transfected with the same vector lacking the ABCA1 cDNA insert (mutant or mock-transfected) were generously provided by the late Dr. John F. Oram from the Department of Medicine, University of Washington, and were characterized and cultured as previously described. […] Mouse-derived peritoneal macrophages J774 were purchased from American Tissue Culture Collection (ATCC TIB-67, Cederlane, Burlington, Canada). For induction of ABCA1, BHK cells were incubated for 18–20 h with 10 nM mifepristone. J774 macrophages were stimulated with 0.3 mM Cpt-cAMP 8-(4-Chlorophenylthio)-cyclic adenosine monophosphate (Sigma). All BHK and J774 macrophages cells were respectively grown and maintained in DMEM and RPMI containing 10% fetal serum until experimental treatment. Studies were carried out on standard 24-well plates (150,000 cells/well) unless stated otherwise
We investigated cholesterol efflux from BHK cells after adding lipid free CS-6253 to media cell culture or to human EDTA-plasma which had been stored at -80°C. BHK overexpressing human ABCA1 were labeled with 2 μCi/ml ^3H-free cholesterol (Perkin Elmer, Norwalk, Connecticut) for 24 h. Afterward, BHK-ABCA1 were stimulated with 10 nmol/l mifepristone for 18–20 h (13). Cells were incubated with various doses of acceptor in media for 4 h at 37°C. Alternatively, plasma samples were first pre-incubated for 5 min at 37°C in plasma at mole ratios (10:1 or 1:1 relative to plasma apo A-I). To obtain the HDL fraction, apoB lipoproteins were precipitated from plasma by polyethylene glycol (PEG). […]
Fig 2 Effect of CS-6253 treatment on cholesterol efflux. […] Cholesterol efflux from either ABCA1 cells or control cells to apo A-I (closed circles), and CS-6253 (closed triangles) was determined at the indicated time points. […] ABCA1 was detected from THP-1 foam cells lysis at 4°C with lysis buffer containing 0.5% n-dodecylmaltoside in the presence of a protease inhibitor mixture followed by low speed centrifugation to remove cell debris. Protein concentration was determined by standard assay (Bio-Rad). […] After electrophoresis, ABCA1 was detected by an anti-ABCA1 antibody. […] E. Quantification of FC and CE in foam cells after interaction with CS-6253 and apoA-I. After a period of 4h cholesterol efflux, THP-1 foam cell lipids were extracted with hexane: isopropanol (3v/2v) as under ‘‘Material and Methods’. 3[H]-FC and 3[H]-CE were separated by TLC and located by exposure to iodine vapor, and were scraped off into liquid scintillating vials and assayed for radioactivity. […]

Experimental findings from article PMC4514675, “Novel Apo E-Derived ABCA1 Agonist Peptide (CS-6253) Promotes Reverse Cholesterol Transport and Induces Formation of preβ-1 HDL In Vitro” (PLoS ONE, 2015) are described below.

Chain of ABCA1 (O95477 whole entry): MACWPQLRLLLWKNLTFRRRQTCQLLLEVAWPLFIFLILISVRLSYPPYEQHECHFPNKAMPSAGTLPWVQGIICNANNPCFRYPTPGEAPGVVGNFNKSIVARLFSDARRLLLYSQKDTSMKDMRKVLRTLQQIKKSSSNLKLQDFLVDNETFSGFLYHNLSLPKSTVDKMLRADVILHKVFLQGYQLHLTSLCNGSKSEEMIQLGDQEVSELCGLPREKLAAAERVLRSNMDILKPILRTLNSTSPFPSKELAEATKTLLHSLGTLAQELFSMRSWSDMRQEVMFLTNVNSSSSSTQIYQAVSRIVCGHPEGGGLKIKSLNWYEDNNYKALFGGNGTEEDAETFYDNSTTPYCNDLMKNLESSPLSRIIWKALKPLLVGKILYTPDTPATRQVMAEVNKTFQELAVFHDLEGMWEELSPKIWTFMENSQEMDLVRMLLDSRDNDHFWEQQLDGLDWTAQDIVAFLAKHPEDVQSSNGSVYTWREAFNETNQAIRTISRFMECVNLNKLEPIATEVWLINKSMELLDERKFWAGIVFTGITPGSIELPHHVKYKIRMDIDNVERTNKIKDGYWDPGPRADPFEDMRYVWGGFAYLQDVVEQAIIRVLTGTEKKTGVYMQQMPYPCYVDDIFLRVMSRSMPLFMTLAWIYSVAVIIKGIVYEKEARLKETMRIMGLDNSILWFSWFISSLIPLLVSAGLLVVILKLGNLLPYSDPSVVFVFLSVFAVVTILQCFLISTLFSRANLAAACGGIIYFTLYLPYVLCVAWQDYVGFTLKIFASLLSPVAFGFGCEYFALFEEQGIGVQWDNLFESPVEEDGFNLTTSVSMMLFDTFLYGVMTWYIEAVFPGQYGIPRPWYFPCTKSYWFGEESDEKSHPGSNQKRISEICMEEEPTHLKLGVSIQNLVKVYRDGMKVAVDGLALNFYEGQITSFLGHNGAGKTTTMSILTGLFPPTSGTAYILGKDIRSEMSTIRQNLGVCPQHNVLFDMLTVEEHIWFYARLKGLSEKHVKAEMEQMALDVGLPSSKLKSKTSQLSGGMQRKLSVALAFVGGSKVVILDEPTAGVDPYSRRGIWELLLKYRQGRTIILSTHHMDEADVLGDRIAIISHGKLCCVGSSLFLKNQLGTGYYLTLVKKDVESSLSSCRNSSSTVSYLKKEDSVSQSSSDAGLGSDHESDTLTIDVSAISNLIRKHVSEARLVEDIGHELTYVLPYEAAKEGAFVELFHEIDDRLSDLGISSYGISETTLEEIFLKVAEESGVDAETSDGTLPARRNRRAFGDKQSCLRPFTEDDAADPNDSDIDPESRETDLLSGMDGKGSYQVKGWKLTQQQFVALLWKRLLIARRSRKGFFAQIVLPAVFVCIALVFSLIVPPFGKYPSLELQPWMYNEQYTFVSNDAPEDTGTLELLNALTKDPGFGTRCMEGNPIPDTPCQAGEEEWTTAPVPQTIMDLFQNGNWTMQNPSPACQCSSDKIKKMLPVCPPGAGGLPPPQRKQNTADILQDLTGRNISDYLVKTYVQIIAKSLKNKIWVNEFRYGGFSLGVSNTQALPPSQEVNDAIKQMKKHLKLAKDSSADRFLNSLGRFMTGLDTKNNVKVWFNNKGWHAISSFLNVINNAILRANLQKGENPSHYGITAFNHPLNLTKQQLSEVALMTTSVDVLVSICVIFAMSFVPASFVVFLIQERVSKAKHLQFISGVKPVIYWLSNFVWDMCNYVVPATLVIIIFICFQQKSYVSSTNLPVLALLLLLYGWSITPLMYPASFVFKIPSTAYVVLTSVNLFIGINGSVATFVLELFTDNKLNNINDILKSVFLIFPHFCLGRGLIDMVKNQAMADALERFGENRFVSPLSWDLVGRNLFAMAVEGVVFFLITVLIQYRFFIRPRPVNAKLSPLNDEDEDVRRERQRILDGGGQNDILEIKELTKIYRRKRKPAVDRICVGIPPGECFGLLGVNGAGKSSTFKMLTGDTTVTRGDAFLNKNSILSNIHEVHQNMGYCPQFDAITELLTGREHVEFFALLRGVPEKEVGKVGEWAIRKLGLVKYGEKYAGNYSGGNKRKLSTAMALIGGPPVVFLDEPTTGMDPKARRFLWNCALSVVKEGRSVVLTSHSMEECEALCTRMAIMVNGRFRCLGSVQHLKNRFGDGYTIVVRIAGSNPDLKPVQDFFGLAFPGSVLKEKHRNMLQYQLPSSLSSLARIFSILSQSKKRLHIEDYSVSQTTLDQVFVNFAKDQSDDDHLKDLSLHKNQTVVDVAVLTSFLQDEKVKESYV

On to apolipoprotein A-I [apo A-I], for which the Km amounted to 150 ± 20 nM and the “Km, cholesterol efflux” value worked out at 4.53 ± 0.67 µg/mL.
